Assay: soluble on expression in E. coli; label from the status in PepcDB or PDB records

Sequence | soluble on expression in E. coli
GIDPFTRDGPLVLIGSGLSSEQQKMLSELAVILKAKKYTEFDSTVTHVVVPGDAVQSTLKCMLGILNGCWILKFEWVKACLRRKVCEQEEKYEIPEGPRRSRLNREQLLPKLFDGCYFYLWGTFKHHPKDNLIKLVTAGGGQILSRKPKPDSDVTQTINTVAYHARPDSDQRFCTQYIIYEDLCNYHPERVRQGKVWKAPSSWFIDCVMSFELLPLDS | soluble
MSLNPLSRNVIPIEIHRIVAVGDVHGDAERFRQILEMSGVISLRSNSSKQVVWKPRWGTKEGNFFREYGTRLRTTLIQTGDLIDRGEEDLEVLEMAVSLFNEVRTNYTDDKVVLLMGNHELLNLQGHFHYVHSKSMGGFLTRALRKRAFELDGTFGGFILENFTVAYAVADTLFVHAGIDEHVVSDGIERLNREAKQAIRTKNFGHILLGSTGPLWSRKMFLDASNGRCADTKKALASLGVKRVVVGHTPQRSGRVETFCGGSVIAIDVGMSRWMYGNIAALEITVTSYSSGDGEGHHHHHH | soluble
GSHMDYNKRSSVSTVPNAAPIRVGFVGLNAAKGWAIKTHYPAILQLSSQFQITALYSPKIETSIATIQRLKLSNATAFPTLESFASSSTIDMIVIAIQVASHYEVVMPLLEFSKNNPNLKYLFVEWALACSLDQAESIYKAAAERGVQTIISLQGRKSPYILRAKELISQGYIGDINSIEIAGNGGWYGYERPVKSPKYIYEIGNGVDLVTTTFGHTIDILQYMTSSYFSRINAMVFNNIPEQELIDERGNRLGQRVPKTVPDHLLFQGTLLNGNVPVSCSFKGGKPTKKFTKNLVIDIHGTKGDLKLEGDAGFAEISNLVLYYSGTRANDFPLANGQQAPLDPGYDAGKEIMKVYHLRNYNAIVGNIHRLYQSISDFHFNTKKIPELPSQFVMQGFDFEGFPTLMDALILHRLIESVYKSNMMGSTLNVSNISHYSL | soluble
MIVLRDVAGSDESMYQALQSDLDLTDYLSRFCPYNSSVANYDTSKVCWFIIEEDTNCIGSIWLERDAQEPDTVILGIFISGKNSRGRGIGSYAIREAIRISKQRMPFRYVRLNVRRNNLRAIRCYEKCGFKVCGEGQKNAKNGAIIDYYRMIMKVED | soluble
MSLARIIVVTSGKGGVGKTTSSAAIATGLAQKGKKTVVIDFDIGLRNLDLIMGCERRVVYDFVNVIQGDATLNQALIKDKRTENLYILPASQTRDKDALTREGVAKVLDDLKAMDFEFIVCDSPAGIETGALMALYFADEAIITTNPEVSSVRDSDRILGILASKSRRAENGEEPIKEHLLLTRYNPGRVSRGDMLSMEDVLEILRIKLVGVIPEDQSVLRASNQGEPVILDINADAGKAYADTVERLLGEERPFRFIEEEKKGFLKRLFGGEGHHHHHH | soluble
MAHHHHHHMAKRKYMSKVDGKINVGEKHQAKIPDLVTDENEKTNVEETQPVENVNNVNDDVRKNKKAKTEQVEETTNNAAEEQVQQEEPVETAPAHEEPAHGEEAQGEEVQGEEAQGEEVQGEEVQGEEAHEEPANDEPANDEPANDEPANEEPANEEPANEEPANEEPANEEPANEEPANEEPANE | not soluble
MEDHKPRPCQPRPWLKEQKCPTGFWCHEGQSEHSFYCCPSSRKFANRCHLPPAVGYGKQRMRRFYFDWKTDACHELQYSGIGGNENIFMDYEQCERVCRGAGEPPILLPSNMKVLPKETTKDFKKMEKPEMEKKMVYPKEVAAPVSLQPPSLRTTKPADVHESFYTVSPQTSSVPHPTTLSTTHSKQKPTTTEAEIPEVFDPNPCSLSPDKGFPGSVTVNMWYYDPTSTTCSPFMYLGKGGNSNRFETSEECLETCGIGKPTRKSCELPPAIGNGPFNIPRYYFDRVTKKCERFFYSGRDGNDNRFYKKNKCERLCLRKKPKKKENIYEFTTTPSTPSVIYESTPLRIIQNLVPNYVTPTPTQSRITVEPWIERFTEKSSIYEYSTTPHPTLIYEPHGETLPTLNPPTTTTPSIVDHVFSSLMNTQQQKLVEFVHVPTDQKTTGETPRKFSSHETIPFGQVEQQPIPMNPFGSAKPTVNKFGMKVEPYQTTDYMLPPGYPSSSIYLPQPAYPEVKPNSSVILSSTQSQNNTSPQTIPASASVTNSATSTVVDTSSQFQIPYVSSPASATSNIFVGPIPPPSNSGSSSQAPDSSQSATNSSNSGSGESKIPNVGPIAPPSQLSQVGVFVTGSTSTSPVVSINFIKTENSVQQPTHYIVPSQSSPPPDPYVISNPIPTLSPTAGTPSFNIYPYPSLPPPTTTISPLPTLLPPNISYVTSPPDNNDSPCSRSIYGDATIMCENRQEICPMGTFCQIGQGQSICCPIMDEPPCEQAIEEGVGNVLLRRWYFDPATRLCQPFYYKGFKGNQNNFQSFDSCSRACGATNVCSGGSPQMSVHTHLLSCNFESDCPYSHDCIQSTPHNLCCPKTSHLVPESIPAPPFEPVQMPIPAPPAQVSQPQEQSSNMVIDFVPATHASNNLCGQPIDVGFGVLSEHRWAYSAGQCTSFLYSGHGGNMNNFLTRNDCMKTCQSPMPPPSSQCSQPAASGQGDQYLSRYFFSPEYRQCLHFIYSGEGGNQNNFDSLTDCLETCVANGIKFSSLANSPMSAVPPPPPTLMPSPPVTSSPFTFVPRNMCPQGDPLITVDGTPIQCDPSKAAKCPGDHVCTPRGNEAYCCPSPMNFCLQSRPPISVCSGPDFEPVREIRFTYDPLADRCVRFSFQNCRGAAFSPTGSLNNFVSNSQCNRLCCNQGYNLVYKRRLLMAMNDDPIVEDD | not soluble
RYSHSLGVYELLRRILNTPAFAPIDENKKQTVLVAGLLHDIGHAPHSHAFEIYFAKAPNFKKELFIHEEVTTLFVNSEPIKSILKANQIDPKLVAALIDENKELKPSNYWMRQLISSDLDADRMDYLLRD | not soluble
GSSLASQGQNLSTVLANLTPEQQKNVLGERLYNHIVAINPAAAAKVTGMLLEMDNGEILNLLDTPGLLDAKVQEALEVLNRHMNV | soluble
MRKSLVALLLLAASGLAQAQVDLREGHPDRYTVVRGDTLWDISGKFLRQPWKWPELWHANPQIQNPHLIYPGDTLSLVYVDGQPRLVLNRGESRGTIKLSPKIRSTPIAEAIPTIPLDKINSFLLANRIVDDEKTFTSAPYIVAGNAERIVSGTGDRIYARGKFADGQPAYGIFRQGKVYIDPKTKEVLGINADDIGGGEVVATEGDVATLALTRTTQEVRLGDRLFPTEERAVNSTFMPGEPSREVKGEIIDVPRGVTQIGQFDVVTLNRGQRDGLAEGNVLAIYKVGETVRDRVTGESVKIPDERAGLLMVFRTYKKLSYALVLMASRPLSVTDRVQNP | not soluble
MGSDKIHHHHHHMNIQTFMLPSQKVSPELEILHADLQTEGQHPPILFLHGYTSGAWQFAQHWMPTLQANGWQSFALNLRGHGGSAGRETVTTARFLDYADDVARAIAYVRGQTDQTPILIGHSLGSVLARHYAAEHSVPGLGLLITIGMQGFMGWMMKRYPLQGMAGMMTGRPSAMFAKFGPQYDVMYAGHNKETVRGNVERLMAQPDSDKVFMDLSKLKLGLPAKSTPTFVMAGTRDPIASVESVEALGRSYAVEPVMLQDKAHDIVAGPDWNDGLQHLQAWLETAKF | not soluble
AHHHHHHGSIKLRDELGTATTDSAQKILLLGSGELGKEIAIEAQRLGVEVVAVDRYANAPAMQVAHRSYVGNMMDKDFLWSVVEREKPDAIIPEIEAINLDALFEFEKEGYFVVPNAKATWIAMHRERLRETLVKEAKVPTSRYMYATTLDELYEACEKIGYPCHTKAIMSSSGKGSYFVRGPEDIPKAWEEAKTKARGSAEKIIVEEHIDFDVEITELAVRHFDENGEIVTTFPKPVGHYQIDGDYHASWQPAEISEKAEREVYRIAKRITDVLGGLGLFGVEMFVKGDKVWANEVSPRPHDTGMVTLASHPPGFSEFGLHLRAVLGLPIPGEWVDGYRLFPMLIPAATHVIKAKVSGYSPRFRGLAKALSVPNATIRLFGKPEAYPGRRLGVVLAWDKDVQEAKKRAEMVAHMIELRTRSSDWHSQDYEKRKHLL | soluble
MGSDKIHHHHHHMKILIIPNRGRSYNAVRPEAECYIALAEAGHDVTVISSGTNAYIDRYKKSKVKFIELKTLKKHSWAVIKQIRQYIKANNIDIVYATESKGIPNAAFACIGTKAKLVVYRGTSGGMYKTDPSNYLCMLHPRINGVIGVSSAVSANVREKVRGAIKANVETIYKGHDLSWYKEDAADLVSLGSNKKYFNILCVGSPRHHKGTHILLDAAKELNDIEDLRIILVGDNLDKQAFIDQINNSGMSEHILQPGFRSDVPAIAKACDLLILPSLSKEGLTRTVLESLSNGTPVVSSANDGVVETIENGFNGYLVPIGDVQAMADKIRMLYNDRVLLEKLSNHAQDIIKDKMSHHKTVTHMEAYFEKIIAQN | not soluble
MGEEEESLAILRRHVMNELLDTERAYVEELLCVLEGYAAEMDNPLMAHLISTGLQNKKNILFGNMEEIYHFHNRIFLRELESCIDCPELVGRCFLERMEEFQIYEKYCQNKPRSESLWRQCSDCPFFQECQKKLDHKLSLDSYLLKPVQRITKYQLLLKEMLKYSKHCEGAEDLQEALSSILGILKAVNDSMHLIAITGYDGNLGDLGKLLMQGSFSVWTDHKKGHTKVKELARFKPMQRHLFLHEKAVLFCKKREENGEGYEKAPSYSYKQSLNMTAVGITENVKGDTKKFEIWYNAREEVYIIQAPTPEIKAAWVNAIRKVLTSQLQACREASQHRALEQSHSLEHHHHHH | soluble
MAHHHHHHMTNFETFQQFYVRDWTPKARPVDAAASVVAPCDGQVLAVNANVESTSLVQVKGLTYGMRSLLQDTPPPLNTDTHRRVAVVLHMRNKDFHHVIAPLSFACEKSIYVPGSLLPTTSAGYHWIPAVLALNERLILQGRSSDKARLPVYMALVGSTLTGRITLYMDKRVRTNYLDPPAYAVHSPYASKPVVARGERLATFNWGSSVVLVMDVPKSCKPLKRPGDVVKAGEALFQF | not soluble
MSLNDKVTAVRDVWRYEQGEISKVEDRMVTEFPLTVILNGSEFVTLVCTPEHIEELVIGFLASEGVIRFQKEIKRFTIDESLGFVYVDLVHPETLDQKDYTKRVIGSCCGKGRHFYFQQDVKTAKTAVSQIKISPEACLALMKDMQQGSGTFQDTGGVHNAALCDTEKLLLMRTDIGRHNALDKLYGHCLLNGMSVRDKLIVFSGRISSEVLLKAAKIGVSIVISKSAPTELAIQMAEELNITAIGFVRNGSFNVYTHPERIREEGHHHHHH | soluble
MSLLRLTSVVGIGHAEDPNPRFRKQMEDVCVMIDKLGNSHSTGFFAIYDGHGGQEAARIAGDNLHRYLLEDLLNQKLEHLLEADPLANQSMSQPTCSQAGSKLSSDGHNLSGNPSGVPKDSQLTNATMSSGVRTGTFSKDKISPSAKVRVPVPPNEPSKLGAIIRKAIQRTDDVLRQKNVLYVGCTALIALVTKYTIEFASVGDSRAVISINGTAYRCTEDHKASDKLEIDRIKSLGGTVIFGRVNGFISVSRALGDHCIKNLVTCDPFLRSYPRYPTPDSVGVTASSTNELDEFIIMACDGVWDVVTDQQSVDTVRKCLKETGSPQKAAFELKNLAIRSGTQDNVSVLVLLLREINKWEGHHHHHH | soluble
MELSRGASAPDPDDVRPLKPCLLRRNHSRDQHGVAASSLEELRSKACELLAIDKSLTPITLVLAEDGTIVDDDDYFLCLPSNTKFVALACNEKWTYNDSDGGTAWVSQESFEADEPDSRAGVKWKNVARQLKEDLSSIILLSEEDLQALIDIPCAELAQELCQSCATVQGLQSTLQQVLDQREEARQSKQLLELYLQALEKEGNILSNQKESKAALSEELDAVDTGVGREMASEVLLRSQILTTLKEKPAPELSLSSQDLESVSKEDPKALAVALSWDIRKAETVQQACTTELALRLQQVQSLHSLRNLSARRSPLPGEPQRPKRAKRDSS | soluble

Reference: the DeepSol protein solubility set
